Measurements from paper PMC5387736, “SnoN Stabilizes the SMAD3/SMAD4 Protein Complex” (Scientific Reports, 2017).

B1: His-tagged MH2 domain of SMAD4 (I314-Q549) (domain or fragment, UniProt Q13485 314-549, looked up)
chain: ISNHPAPEYWCSIAYFEMDVQVGETFKVPSSCPIVTVDGYVDPSGGDRFCLGQLSNVHRTEAIERARLHIGKGVQLECKGEGDVWVRCLSDHAVFVQSYYLDREAGRAPGDAVHKIYPSAYIKVFDLRQCHRQMQQQAATAQAAAAAQAAAVAGNIPGPGSVGGIAPAISLSAAAGIGVDDLRRLCILRMSFVKGWGPDYPRQSIKETPCWIEIHLHRALQLLDEVLHTMPIADPQ
notes: SMAD4, MH2 domain, residues I314-Q549; Cloned in pNIC28Bsa4; also called ^HisSMAD4; not shown: His6, N-terminal, kept

Experiments:
[1] = target: Strep II-tagged MH2 domain of SMAD3 (S423E, S425D), E145-D425; assay: SEC; gel filtration of the single proteins in buffer A (Superdex 200 for SMAD4 and SnoN constructs, Sephacryl 300 for SMAD3); oligomeric state from the retention volume
[2] = target: T1, SnoN (M1-S356), untagged (UniProt P12757-1 1-356); assay: fluorescence labelling of cysteines (IRDye 800CW maleimide) and gel scanning; Ni-NTA eluate of the isolated SnoN-SMAD3-SMAD4 complex, boiled in 1% SDS, labelled, SDS-PAGE, near-infrared imaging; three measurements
T1 construct: Cloned in pNIC28Bsa4; the asterisk marks the TEV cut, so SM probably remains at the N-terminus after cleavage; also called truncated SnoN (M1-S356, 38.6 kDa); not shown: His6, N-terminal, cleaved
T1 sequence (looked up): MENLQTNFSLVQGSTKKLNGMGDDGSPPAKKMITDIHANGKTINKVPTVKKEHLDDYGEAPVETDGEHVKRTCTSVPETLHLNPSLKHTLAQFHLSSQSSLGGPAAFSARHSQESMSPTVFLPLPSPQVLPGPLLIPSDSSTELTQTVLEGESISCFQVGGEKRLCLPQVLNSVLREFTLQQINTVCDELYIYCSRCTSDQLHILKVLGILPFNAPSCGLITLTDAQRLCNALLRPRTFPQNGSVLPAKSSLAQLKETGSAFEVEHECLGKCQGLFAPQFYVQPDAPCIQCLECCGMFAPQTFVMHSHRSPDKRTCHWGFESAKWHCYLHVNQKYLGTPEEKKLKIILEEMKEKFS

[3] = target: B1; assay: crystal structure; SnoN SAND domain with SMAD4 MH2 domain, complex reconstituted 1:1; sitting drop, 2.8-3.3 M NaCl, 0.1 M Bis-Tris pH 5.5, 20 °C; 2.6 Å
[4] = target: B1; assay: SPR; BIAcore 2000; SMAD4 (I314-Q549) amine-coupled on CM5 (about 1300 RU); SnoN SAND domain 0-500 nM injected; 10 mM HEPES pH 7.4, 150 mM NaCl, 0.005% TWEEN-20, 0.5 mM TCEP; room temperature; one-step binding model; conditions: both partners purified

Molecule “Strep II-tagged MH2 domain of SMAD3 (S423E, S425D), E145-D425 (domain or fragment)” has a stoichiometry N [1] of 3 and a stoichiometry N (SMAD3 per SnoN) [2] of 2.1.

In the case of B1, the stoichiometry N [3] is reported as 3 and the “stoichiometry N” value ([2]; both partners purified) is reported as 1.2 SMAD4 per SnoN.

B2: SnoN SAND-domain (T238-S356) with C-terminal biotinylation sequence (domain or fragment, UniProt P12757-1 238-356, looked up)
chain: TFPQNGSVLPAKSSLAQLKETGSAFEVEHECLGKCQGLFAPQFYVQPDAPCIQCLECCGMFAPQTFVMHSHRSPDKRTCHWGFESAKWHCYLHVNQKYLGTPEEKKLKIILEEMKEKFS
notes: SnoN, SAND domain, residues T238-S356; Cloned in pNicBio3 for the SPR analysis; In the SPR it was the analyte, SMAD4 was amine-coupled; also called SnoN (T238-S356)
Work on B2 yielded a Kd [4] of 1.1 µM, a koff [4] of 0.129 s⁻¹ and a kon [4] of 120000 M⁻¹ s⁻¹.
